{"source": "patent US6413943", "about": "(CELL GENESYS, dated 2002)", "binders": {"B1": {"name": "human p16 (other)", "chain": "MEPAAGSSMEPSADWLATAAARGRVEEVRALLEAGALPNAPNSYGRRPIQVMMMGSARVAELLLLHGAEPNCADPATLTRPVHDAAREGFLDTLVVLHRAGARLDVRDAWGRLPVDLAEELGHRDVARYLRAAAGGTRGSNHARIDAAEGPSDIPD"}}, "assay_in_all_cases": "cell-based or functional assay", "key": {"CDC2/cyclin B complex": {"biological_target": "CDC2/cyclin B complex (UniProt P06493 1-297)", "sequence (P06493 whole entry, one chain of several)": "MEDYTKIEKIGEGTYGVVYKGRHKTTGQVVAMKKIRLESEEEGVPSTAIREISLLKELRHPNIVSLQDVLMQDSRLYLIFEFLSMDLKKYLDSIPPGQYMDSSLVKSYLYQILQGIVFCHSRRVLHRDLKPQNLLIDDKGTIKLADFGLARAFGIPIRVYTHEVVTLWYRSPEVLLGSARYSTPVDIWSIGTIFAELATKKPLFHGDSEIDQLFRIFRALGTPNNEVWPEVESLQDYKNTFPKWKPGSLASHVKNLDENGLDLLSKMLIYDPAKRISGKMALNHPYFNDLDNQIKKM"}, "CDK4/cyclin D1 complex": {"biological_target": "CDK4/cyclin D1 complex (UniProt P11802 1-303; P24385 1-295)", "sequence (P11802 whole entry, chain 1 of 2)": "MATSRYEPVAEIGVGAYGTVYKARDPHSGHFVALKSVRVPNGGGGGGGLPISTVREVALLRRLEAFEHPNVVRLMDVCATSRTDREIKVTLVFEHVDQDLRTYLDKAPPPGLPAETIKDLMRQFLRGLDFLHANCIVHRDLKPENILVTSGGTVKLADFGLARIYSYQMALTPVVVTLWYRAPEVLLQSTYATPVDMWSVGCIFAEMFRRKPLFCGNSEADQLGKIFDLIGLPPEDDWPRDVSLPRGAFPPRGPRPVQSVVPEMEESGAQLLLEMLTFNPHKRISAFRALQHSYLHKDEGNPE", "sequence (P24385 whole entry, chain 2 of 2)": "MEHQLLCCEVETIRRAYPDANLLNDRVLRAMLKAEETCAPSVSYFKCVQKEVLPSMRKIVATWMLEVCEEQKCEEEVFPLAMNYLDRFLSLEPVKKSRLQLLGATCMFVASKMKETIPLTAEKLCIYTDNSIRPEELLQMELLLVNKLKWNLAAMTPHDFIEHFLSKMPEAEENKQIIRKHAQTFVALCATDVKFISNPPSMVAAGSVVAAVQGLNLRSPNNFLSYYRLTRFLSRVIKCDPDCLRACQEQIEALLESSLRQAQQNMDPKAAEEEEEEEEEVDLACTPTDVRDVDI"}, "CDK2/cyclin E complex": {"biological_target": "CDK2/cyclin E complex (UniProt P24941 1-298)"}, "CDK2/cyclin A complex": {"biological_target": "CDK2/cyclin A complex (UniProt P24941 1-298)"}}, "data": [{"binder": "B1", "values": [{"measurement": "IC50, in vitro kinase activity (histone H1 phosphorylation)", "setting": "CDC2/cyclin B complex", "value": "> 500", "unit": "nM"}, {"measurement": "IC50, in vitro kinase activity (GST-Rb phosphorylation)", "setting": "CDK4/cyclin D1 complex", "value": 250, "unit": "nM"}, {"measurement": "IC50, in vitro kinase activity (GST-Rb phosphorylation)", "setting": "CDK2/cyclin E complex", "value": "> 500", "unit": "nM"}, {"measurement": "IC50, in vitro kinase activity", "setting": "CDK2/cyclin A complex", "value": "> 500", "unit": "nM"}]}]}
